Data on 1 molecule can be found in US11175293 (UNIVERSITY OF UTAH RESEARCH FOUNDATION, dated 2021).

This test has as its target T1, NanoSpike.
T1 construct: also called IH4vs2-Spike
Description: flow cytometry on human whole blood, detected with FITC-conjugated anti-Strep-tag antibodies. In general terms: In flow cytometry, cells or beads pass a laser one at a time.

B1: Glycophorin A (GYPA) on the surface of human red blood cells (other)
chain: LSTTEVAMHTSTSSSVTKSYISSQTNDTHKRDTYAATPRAHEVSEISVRTVYPPEEETGERVQLAHHFSEPEITLIIFGVMAGVIGTILLISYGIRRLIKKSPSDVKPLPSPDTDVPLSSVEIENPETSDQ
notes: whole, on cells; also called GPA; RBC
Regarding B1, the binding result is on record as “binds”.
